Data set [1] addresses Campylobacter sp. FOBRC14 isocitrate dehydrogenase (Campylobacter sp. FOBRC14). In words: SEC; Superdex 200 10/300 column, 0.05 M potassium phosphate pH 7.0, 0.15 M NaCl, 0.01% sodium azide, flow 0.5 ml/min; mass estimated against protein standards.
In data set [2] the test system is T1, CaIDH.
T1 construct: gene IDH
The conditions noted are these: read-out: NADP^+ / Km; 1.0 mM isocitrate fixed; 35 mM Tris-HCl pH 7.5, 2 mM MgCl2 or MnCl2, 25°C; Methods print the second mutation as Asp594Arg.

The subject of data set [3] is T1, CaIDH. The conditions noted are these: read-out: NAD^+ / Km; 1.0 mM isocitrate fixed; 35 mM Tris-HCl pH 7.5, 2 mM MgCl2 or MnCl2, 25°C; Methods print the second mutation as Asp594Arg.
The target of data set [4] is Ostreococcus lucimarinus CCE9901 isocitrate dehydrogenase (Ostreococcus lucimarinus CCE9901). The data set can be described thus: SEC; Superdex 200 10/300 column, 0.05 M potassium phosphate pH 7.0, 0.15 M NaCl, 0.01% sodium azide, flow 0.5 ml/min; mass estimated against protein standards.
For data set [5] the target is unchanged. The data set can be described thus: MALDI-TOF/TOF mass spectrometry; AB SCIEX MALDI TOF-TOF 5800, linear high mass positive-ion mode, SA matrix, TFA as ionization auxiliary reagent.
In data set [6] the test system is NC(=O)c1ccc[n+]([C@@H]2O[C@H](COP(=O)(O)OP(=O)(O)OC[C@H]3O[C@@H](n4cnc5c(N)ncnc54)[C@H](OP(=O)(O)O)[C@@H]3O)[C@@H](O)[C@H]2O)c1. In words: purified protein. The settings on record: 1.0 mM isocitrate fixed, 35 mM Tris-HCl pH 7.5, 2 mM MgCl2 or MnCl2, 25°C, varied: cofactor.
The subject of data set [7] is NC(=O)c1ccc[n+]([C@@H]2O[C@H](COP(=O)(O)OP(=O)(O)OC[C@H]3O[C@@H](n4cnc5c(N)ncnc54)[C@H](O)[C@@H]3O)[C@@H](O)[C@H]2O)c1. The data set can be described thus: purified protein. The settings on record: 1.0 mM isocitrate fixed, 35 mM Tris-HCl pH 7.5, 2 mM MgCl2 or MnCl2, 25°C, varied: cofactor.
Substrate in data set [8]: NC(=O)c1ccc[n+]([C@@H]2O[C@H](COP(=O)(O)OP(=O)(O)OC[C@H]3O[C@@H](n4cnc5c(N)ncnc54)[C@H](OP(=O)(O)O)[C@@H]3O)[C@@H](O)[C@H]2O)c1
The data set can be described thus: purified protein. The conditions noted are these: 1.0 mM isocitrate fixed, 35 mM Tris-HCl pH 7.5, 2 mM MgCl2 or MnCl2, 25°C, varied: cofactor. Format: biochemical, Ostreococcus sp. 'lucimarinus'.

Substrate in data set [9]: NC(=O)c1ccc[n+]([C@@H]2O[C@H](COP(=O)(O)OP(=O)(O)OC[C@H]3O[C@@H](n4cnc5c(N)ncnc54)[C@H](O)[C@@H]3O)[C@@H](O)[C@H]2O)c1
The data set can be described thus: purified protein. Format: biochemical, Ostreococcus sp. 'lucimarinus'. The settings on record: 1.0 mM isocitrate fixed, 35 mM Tris-HCl pH 7.5, 2 mM MgCl2 or MnCl2, 25°C, varied: cofactor.

Substrate in data set [10]: NC(=O)c1ccc[n+]([C@@H]2O[C@H](COP(=O)(O)OP(=O)(O)OC[C@H]3O[C@@H](n4cnc5c(N)ncnc54)[C@H](OP(=O)(O)O)[C@@H]3O)[C@@H](O)[C@H]2O)c1
The data set can be described thus: purified protein. The class given is biochemical, Micromonas commoda. The conditions noted are these: 1.0 mM isocitrate fixed, 35 mM Tris-HCl pH 7.5, 2 mM MgCl2 or MnCl2, 25°C, varied: cofactor.

Substrate in data set [11]: NC(=O)c1ccc[n+]([C@@H]2O[C@H](COP(=O)(O)OP(=O)(O)OC[C@H]3O[C@@H](n4cnc5c(N)ncnc54)[C@H](O)[C@@H]3O)[C@@H](O)[C@H]2O)c1
In words: purified protein. Format: biochemical, Micromonas commoda. The conditions noted are these: 1.0 mM isocitrate fixed, 35 mM Tris-HCl pH 7.5, 2 mM MgCl2 or MnCl2, 25°C, varied: cofactor.

Residue numbers refer to the chain shown, from its start. Names may count otherwise. Where two headings read alike, the source gives them in different places. Bounds are passed on as bounds.

Here are results for eight molecules from publication PMC4360740, “Novel Type II and Monomeric NAD^+ Specific Isocitrate Dehydrogenases: Phylogenetic Affinity, Enzymatic Characterization, and Evolutionary Implication” (Scientific Reports, 2015).

As to “Campylobacter sp. FOBRC14 isocitrate dehydrogenase (enzyme)”, the fraction eluting as dimer in data set [1] was < 5%.
Turning to `NC(=O)c1ccc[n+]([C@@H]2O[C@H](COP(=O)(O)OP(=O)(O)OC[C@H]3O[C@@H](n4cnc5c(N)ncnc54)[C@H](OP(=O)(O)O)[C@@H]3O)[C@@H](O)[C@H]2O)c1` [NADP^+], the Km in the data set with CaIDH [2] amounted to 11.4 ± 4.6 µM.
On to `NC(=O)c1ccc[n+]([C@@H]2O[C@H](COP(=O)(O)OP(=O)(O)OC[C@H]3O[C@@H](n4cnc5c(N)ncnc54)[C@H](O)[C@@H]3O)[C@@H](O)[C@H]2O)c1` [NAD^+], for which the Km with CaIDH [3] stood at 493 ± 52.5 µM.
With “Ostreococcus lucimarinus CCE9901 isocitrate dehydrogenase (enzyme)”, the stoichiometry N in data set [4] and in data set [5] was 2 in each case.
With CaIDH (Campylobacter sp. FOBRC14), in [6], the Km was found to be 513.2 ± 14.9 µM, the catalytic constant (kcat) was found to be 1.9 ± 0.1 s⁻¹ and the specificity constant (kcat/Km) was 4000 M⁻¹ s⁻¹. In [7], the Km was 28.9 ± 4.5 µM, the turnover number (kcat) was found to be 7 ± 0.8 s⁻¹ and the specificity constant (kcat/Km) was 242000 M⁻¹ s⁻¹.

B1: OlIDH (Ostreococcus lucimarinus CCE9901) (protein)
chain: MSANASKITAAPMVYVRGEEMTAYVMDLIRAKWIEPRVDTTAWREFDLRAKNRDDTEDQVLRDVIEAGKAVKAIFKEPTVTPTADQVKRLGLRKSWGSPNGAMRRGWNGITISRDTIHIDGVELGYKKPVFFERHAVGGEYAAGYKNVGKGTLVTTFTPSEGPDAGKPVEVDSRTITDNEAAVVTYHNPYDNVHELARFFFGRCLEAKITPYVVTKKTVFKWQEPFWQIMKKVFDEEYKSKFVDAGVMKSGDELVHLLSDAATMKLVQWRQGGFGMAAHNYDGDVLTDELAQIHKSPGFITSNLVGVDENGTLIKEFEASHGTVADMDEARLRGEETSLNPLGMVEGLIGAMNHAADVHNVDKERTLAFTAKMRAVIHQLFREGKGTRDLSGPSGLTTEQFVDAVAERL
notes: full-length synthetic codon-optimised gene in pET-28b(+) NdeI/XhoI, 6xHis-tagged, E. coli Rosetta (DE3); about 46 kDa subunit, 415 residues as used in CD calculation; homodimer 93 kDa by MALDI
Turning to B1, in the data set “purified protein [8]”, the Km is 2211 ± 75 µM, the kcat stood at 10 ± 1.6 s⁻¹ and the kcat/Km came to 4500 M⁻¹ s⁻¹. Further, in “purified protein [9]”, the Km is 136.6 ± 13.6 µM, the kcat amounted to 60.6 ± 3.8 s⁻¹ and the kcat/Km turned out to be 444000 M⁻¹ s⁻¹.

B2: OlIDH (Ostreococcus lucimarinus CCE9901; D326R/M327H) (protein)
chain: B1 chain with D326R, M327H
notes: as for B1
As to B2, in the data set “purified protein [8]”, the Km was 8.2 ± 1.9 µM, the kcat is 1.8 ± 0.2 s⁻¹ and the kcat/Km is 220000 M⁻¹ s⁻¹. Moreover, in “purified protein [9]”, the Km came to 2941.3 ± 75.8 µM, the catalytic constant (kcat) was determined as 29.1 ± 7.9 s⁻¹ and the specificity constant (kcat/Km) was 10000 M⁻¹ s⁻¹.

B3: MiIDH (Micromonas commoda) (protein)
chain: MAAASAGGKIQAAPMVYVAGEEMTRYTMDLILERWIKPHVDTSAWEFFDLRAKNRDDTEDQVLRDVISAGARLKAIFKEPTITPTADQVKRLGLKKAWGSPNGAMRRGWNGITISRDTIHIDGVELGYKKPVFFERHAVGGEYSAGYKIVGKGKLTTTFVPEAGGEPIVVDDRKITDDLNAVVAYHNPLDNVAHLARIFFGRCLDAGIVPYVVTKKTVFKWQEPFWESMKTVFDAEFKQKFYEKGVMKPGSELVHLLSDAATMKLVVWTDGGFGMAAHNYDGDVLTDELAQVHKSPGFITSNLVGVDDNGTLIKEFEASHGTVTDMDEARLRGEETSLNPLGMVEGLIGAMNHAADVHGGSSGVHPWTGKLRAVIHKLFREGRGTRDLCGAGGLTTEQFIDAVAEEL
notes: full-length synthetic codon-optimised gene in pET-28b(+) NdeI/XhoI, 6xHis-tagged, E. coli Rosetta (DE3); described as homodimeric
Consider B3, for which, in the data set “purified protein [10]”, the Km turned out to be 1827 ± 42.4 µM, the kcat turned out to be 1.4 ± 0.2 s⁻¹ and the kcat/Km was found to be 800 M⁻¹ s⁻¹. In addition, in the data set “purified protein [11]”, the Km was 126 ± 5.3 µM, the catalytic constant (kcat) was determined as 22.5 ± 2 s⁻¹ and the kcat/Km turned out to be 179000 M⁻¹ s⁻¹.

As a reminder, the stoichiometry N is a count of units in the complex or per binding partner. One may read the kcat as the maximal rate divided by the concentration of active sites. The term kcat/Km denotes the turnover number divided by the Michaelis constant.
